# Reference: the nanobody polyreactivity screen of Harvey et al. (2022)
# Experiment: yeast display, Sf9 membrane polyspecificity reagent, FACS + sequencing; frameworks hold sequencing errors
# Summary of the method: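 Nanobodies from a synthetic yeast display library (Saccharomyces cerevisiae BJ5465), induced 36–48 hours with galactose, were stained 1 hour at 4 °C with 10% biotinylated, detergent-solubilized Sf9 membrane reagent, enriched on streptavidin microbeads, then FACS-sorted. Anti-HA (expression) and streptavidin (reagent binding) fluorescence set low and high (top ~1%) gates. Polyreactivity labels come from the gate of origin. Genes were colony-PCR amplified, MiSeq 2 × 250 sequenced and filtered by CDR length.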
row,Sequence,polyreactivity (PSR sort gate)
1,QVQLVESGGGLVQAGGSLRLSCAASGLTFYYYAMGWYRQAPGKERELVAAISIGGSTDYADSAKGRFTISRDNAKNTVYLQMNRLKPEDTAVYYCNVDDNSEYDYWGQGTQVTVSS,low polyreactivity
2,QVQLVESGGGLVQAGGSLRLSCAASGGTFNSNAMGWYRQAPGKEREFVAAISSSGGSTYYADSVKGRFTISRDNAKNTVYLQMNSLKPEDTAVYYCAKRYPYPNGRFRFGYWGQGTQVTVSS,high polyreactivity
3,QVQLVESGVGLVQAGGSLRLSCAATGFTFDENAMGWYRQAPGINYSGASTYYAYSVKGRFTISRDNAKNTVYLQMNSLKPEDTAVYYCAAEVVAQMNYWGQGTQVTVSS,low polyreactivity
4,QVQLVESGGGLVQAGGSLRLICAATGITFITYVMGWYSQAPGKERELVAAISLRGGRTSYADSVKGRFTISRDNAKNTVYLQMNSLKPEDTAVYYCAARGGAYQNAYEYDYWGPGTQVTVSS,high polyreactivity
5,QVQLVESGGGLVQAGGSLRLSCAASGRTFSLYAMGWYRQAPGKERELVAAISWGGGSTYYADSVKGRFTISRDNAKNTVYLQMNSLKPEDTAVYYCAADDVSATKYEDDYWGQGTQVTVSS,low polyreactivity
6,QVQLVESGGGLVQAGGSLRLSCAASGSIFGYYAMGWYRQAPGKERELVAVITSGATTNYADSVKGRFTISRDNAKNTVYLQMNSLKPEDTAVYYCAARPQVKRGRYGYWGQGTQVTVSS,low polyreactivity
7,QVQLVESGGGLVQAGGSLRLSCAASGRIFGIYAMGWYRQAPGKERELVAAITWNGGSTYYADSVKGRFTNSRDNAKNTVYLQMNSLKPEDTAVYYCAARTADYSYGRRVVTRYGYWGQGTQVTVSS,high polyreactivity
8,QVQLVDSGGGLVQAGGILRLSCAASGSTFDVYAIGWYRQAPGKEWELVAAITWDGDRTYYADSVKGRFTISRDNAKNTVYLQMNSLKPEDTGVYYCNADEGGNYREDYWGQGTQVTVSS,low polyreactivity
9,QVQLVESGGGLVQAGGSLRLSCAASGTFFGYALGWYRQAPGKERELVAAITPGGSTYYADSVKGRFTISRDNAKNTVYLQMNSLKPEDTAVYYCARVYSRWSYRYDYWGQGTQVTVSS,low polyreactivity
10,QVQLVESGGGIVQAGGSLRLSCAASGFTFWYYAMGWYRQAPGKERELVAVINTSGGSTYADSVKGRFTISRDNAKNTVYLQMNSLKPEDTAVYYCNKDFIYGYDAASYRPEYDYWGQGTQVTVSS,low polyreactivity
11,QVQLVESGGGLFQAGGRLRLSCAASGSTFGYNAMGWYREAPGKERELVAAISYSSGSTYYADSVKGRFTISRDNAKNTVYLQMNSLKPEDTAVYYCAVVSRASRRGGRYDYWGQGTQVTVSS,high polyreactivity
12,QVQLLESGGGLVQPGGSLRLSCAASGRIFRHSAMGWYRQAPGKERELVAAISGGGGRTYYADSVKGRFTISRDNAKLSVDLQMNSLKPEDTAVYYCAAYRSRHYYYWGHGTQVTVSS,high polyreactivity
13,QVQLVESGGGLVQAGGSLRLSCAASGITFDYYAMGWYRQAPGKERELVAAIDTGGSTNYADSVKGRFTISRDNAKNTVYLQMNSLKPEDTAVYYCAKDPHGSDFGYWGQGTQVTVSS,low polyreactivity
14,QVQLVESGGGLVQAGGSLRLSCADSGRTFWSNSMGWYRQAPGKERELVARIDSTYYADSVKGRFTISRDNAKNTVYLQMNSLKPEDTAFYYCNADTIYYAGDFRYDYWGQGTQVTVSS,low polyreactivity
15,QVQLVESGGGLVQAGGSLRLSCAASGFTFDFYAMGWYRQAPGKERELVATISYSGASTYYADSVKGRFTISRDNAKNTIYLQLNSLKPEDTAVYYCNAESSYYYGTAAYEYWGQGTQVTVSS,low polyreactivity
16,QVQLVESGGGLVQAGGSLRLSCAASGFTFTLNAMGWYRQAPGKERELVAGISSGGSTNYADSVKGRFTISRDNAKNTVYLQMNSLKPEDTAVYYCAADRGYVWRYDYWGQGTQVTVSS,low polyreactivity
17,QVQLVESGGGLVQAGGSLRLSCAASGRIFNFYAMGWYRQAPGKEWELVAAITNGGGTKYADSVKGRFTISRDNAKNTVYLQMNSLKPEDTAVYYCAARYYRRQRGQTSHSRFGYWGQGTQVTVSS,high polyreactivity
18,QVQLVESGGGLVQAGGSLRLSCAASGSIFLYYAMGWYRQAPGKERELVAVITSGGITNYADSVKGRFTISRDNAKNTFYLQMNSLKPEDTAVYYCNKEYYITYFDLVYSSLDYWGQGTQVTVSS,low polyreactivity
19,QVQLVESGGGLVQAGGSLRLSCAASGRTFPGYAMGWYRQAAGTERELVAGISYRGGSTYYADSVKGRFTISRDNAKNTVYLQMNSLKPEDTAVYYCARDYSRHKGDYWGQGTQVTVSS,low polyreactivity
20,QVQLVESGGGLVQAGGSLRLSCAASGSTFYHNVKGWYRQAPWKERELVASIDTGDSTNYADTVKGRFSISRDNAKKTVYLQMNSLKPEDTAVYYCNADSYPALNKRGYEYWGQGTQVTVSS,low polyreactivity
21,QVQLVESGGGLVQAGGSLRLSCAASGRTFRYYAMGWYRQAPGKERELVAVITQSGGRTYYADSVKGRFTISRDNAKNTVYLQMNSLKPEDTAVYYCNAVFPGFFRSSPTYDYWGQGTQVTVSS,high polyreactivity
22,QVQLVESGGGLVQAGGSLRLSCAASGIIFDRYAMGWYRQAPGKERELVAAITYGGGSTYYADSVKGRFTISRDNAKNTVYLQMNSLKPEDTAVYYCAAVPRSGMYYWGQGTQVTVSS,high polyreactivity

row,Sequence,polyreactivity (PSR sort gate)
1,QVQLVESGGGLVQAGGSLRLSCAASGGTFSTYTMGCYRQAPGKERELVAGISGRGGSTRYADSVKGRFTISRDNAKNTVYLQMNSLKPEDTAVYYCNARKRSYWGIVFVGLYDYWGQGTQVTVSS,high polyreactivity
2,QVQLVESGGGLVQAGGSLRLSCAASGITFSGNAMGWYRQAPGKERELVAAITWRGDNTYYADSVKGRFTISRDNAKNTVYLQMNSLKPEDTAVYSCAAKSPLFGLTSYPGPDDSWGQGTQVTVSS,low polyreactivity
3,QVQLVESGGGLVQAGGSLRLSCAASGRTFSRYAMGWYRQAPGKERELVAAITWSGGRTYYADSVKGRFTISSDNAKNTVYLQMNSLKPEDTAVYYCAASYRCYKHADPLYNYWGQGTQVTVSS,low polyreactivity
4,QVQLVESGGGLVQAGGSLRLSCAASGRTFRRYAMGWYRQAPGKERELVAAITWGAGSTRYADSVKGRFTISRDNAKNTVYLQMNSLKPEDTAVYYCAAENTRAYGMYYWGQGTQVTVSS,high polyreactivity
5,QVQLVESGGGLVQAGGSLRLTCAASGRIFLINAMGWYRPAPGKERDLVATISRSGASTDYADSVKGRFTISRDNAKYIVYLQMKSMKPEDTAVYYCNAKVYKRRVVPYDYWGQGSQVTVSS,high polyreactivity
6,QDQLEDSGGGLVQAGGSLRLICAASGSIFDTYAMGWYRQAPGKERELVATISWSGDSTYYADSVKGRFTISRDNAKNTVYLQLNSLKPEDTAVYYCAATTDALVGRPRYDYWGQGTQVTVSS,low polyreactivity
7,QVQLVESGGGLVQAGGSLRLSCAASGTFERKVMGWYRPAPGKERELVAAISRSGSSTYYADSVKGRFTISRDNAKNTVYLQMNSLKPEDTAVYYCAARGTKQHFNYWGQGTQVTVSS,high polyreactivity
8,QVQLVESGGGLVQAGGSLRLSCAASGRIFVKYAMGWYRQAPGKERELVAAIRSGGSTYYADSVKGRFTISRDNAKNTVYLQMNSLKPEDTAVYDCAADRNKHHYYTEPYDYWGQGTQVTVSS,low polyreactivity
9,QVQLVESGGGLVQAGGSLRLSCAASGRIFYVYAMGWYRQAPGKEREFVAAITRRSGSTYYADSVKGRFTISRDNAKNTVYFQMKSVKPEDTAVYSCNARLKYAIPQVPPYDYWGQGTQVTVSS,high polyreactivity
10,QVQLVESGGGLVQAGGSLRLRCAASGRIFNGYGMGWYRQAPGKERELVAAITWSGGGTYYADTVKGRFTISRDNAKNTVYLQRNSLKPEDTAVYYCAAYSSSYPDYDSWGQGTQVTVSS,low polyreactivity
11,HVQLVESGGGLVQAGGSLRLSCAASGRIFYIYAMGWYRQAPGKERELVAGIRSRGGSTYYADSVKGRFTISRDNAKNTVYLQMNSLKPEDTAVYYCTTEIWGVNSSGYDYWGQGTQVTVSS,low polyreactivity
12,QVQLVESGGGLVQAGGSLRLSCAASGSNFPVYAMGWYRQAPGKEREFVAAISYSGGGTYYADSVKGRFTISRDNAKNTVYLQMNSLKPEDTAVYYCAADVSGWEYAYWGQGTQVTVSS,low polyreactivity
13,QVQLVESGGGLVQAGGSLRLSCAASGFTIDSYAMGWYRQAPGTERELVAAISYRGGTTYYADSVKGRFTISRDNAKNTVYLQMNSLKPEDTAVYYCNRMWKYGFNYWGQGTQVTVSA,high polyreactivity
14,QVQLVESAGGLVQARGSLRLSCAASGINFDWYTMGWYRKAPGKERELVAAISWRGGRTYYADSVKGRFTISRDNAKNTVYLQMNSLKPEDTAVYYCAAEAPVQPFYVFNTGIYELDYWGQGTQVTVSS,low polyreactivity
15,PLQLVESGGGLVQAGGSLRLSCAATGFIFAVNAMGWYRQAPGKERELVAAISSSGTTNYADSVKGRFTISRDNAKNTVYLQMNSLKPEDTAVYYCAADYHGSPEYDYWGQGTQVTVSS,low polyreactivity
16,QVQLVESGGGLVQAGGSLRLSCAASGRIVRNAMGWYRQAPGKERELVAAISRSGGSTYDADSVKGRFTISRDNAKNTVYLQMNSLKPEDTAVYYCAKRSTSQSLQVEYWGQGTQVTVSS,high polyreactivity
17,QVQLVESGGGLVQAGGSLRLSCAASGRTFQYYTMGWYRQAPGKERELVAAITWRGGTTYYADSVKGRFTISRDNAKNTVYLQMNSLKPEDTAVYYCAAYSPDYGFDYWGQGTQVTVSS,high polyreactivity
18,QGQLVESGGGLVQAGGSLRLSCAASGFTFGHYAMGWYRQAPGKERELVAAIRWSGGSTYYADSVKGRFTISRDNAKNTVYLQMNSLKPEDTAVYYCAARGFDGYEYDYWGQGTQVTVSS,low polyreactivity
19,QVQLVESGGGLVQAGGSLRLSCAASGFIFYYNAMGWYRQAPGKERELVAAISSSAGSTYYADSVKGRFTISRDNAKNTVYLQMNSLKPEDTAVYYCDGSRPPNTSNTGYGSWGQGTQVTVSS,low polyreactivity
20,QVQLVESGGGLVQAGGSLRLSCAASGSTFSSYAMGWYRQAPGKERELVAATYYADSVKGRFTISRDNAKNTVYLQMNSLKPEDTAVYYCNADNDYQGGKEYDYWGQGTQVTVSS,low polyreactivity
21,QVQLVESGGGLVQAGGSLRLSCAASGRISRTNAMGWYRQAPGKERELVATITRGGNTNYADSVKGRFTISRDNAKNTVYLQMNSLKPEDTAVYYCAALGRYLRTYRGYVWQFDSWGQGTQVTVSS,high polyreactivity
